Experimental data as given in doi:10.1101/432989 (bioRxiv, 2018).
Numbering of substitutions follows the chain as printed. In names and notes the source's numbering stands.

B1: MazE-mt1 (natural protein)
chain: MKLSVSLSDDDVAILDAYVKRAGLPSRSAGLQHAIRVLRYPTLEDDYANAWQEWSAAGDTDAWEQTVGDGVGDAPR
B2: MazE-mt1 D69A mutant (natural protein)
chain: B1 chain with D69A
B3: MazE-mt9 (natural protein)
chain: MSTSTTIRVSTQTRDRLAAQARERGISMSALLTELAAQAERQAIFRAEREASHAETTTQAVRDEDREWEGTVGDGLG
B4: MazE-mt9 R46A-E48A-D74A triple mutant (natural protein)
chain: B3 chain with R46A, E48A, D74A
B5: MazE-mt9 D74A mutant (natural protein)
chain: B3 chain with D74A

Assays:
[1] = target: MazF-mt9 (Mycobacterium tuberculosis); assay: ITC
crystal structure = target: the molecule itself; assay: crystal structure

| Binder | Kd [1] [nM] | fold increase of KD against WT MazE-mt9 [1] [fold] | other results |
| --- | --- | --- | --- |
| B1 | 59.3 |  |  |
| B2 |  |  | fold weakening of affinity against WT MazE-mt1 [1]: 5.3 fold |
| B3 | 17.5 |  | binding result (crystal structure): binds |
| B4 |  | 8 |  |
| B5 |  | 2 |  |
